Reference: US20260098102A1 (NATIONAL UNIVERSITY CORPORATION KOBE UNIVERSITY, published 2026)

Key:
human SIRPA_V5 = target: T1, human SIRPA_V5 (human, UniProt P78324 31-504); assay: cell-based ELISA on 293α cells expressing FLAG-tagged SIRPA_V5; Abs 490 normalized to FLAG tag [i]
T1 construct: FLAG-tagged (pFLAG V5-DEST), on 293α cells; also called human SIRPA Variant 5
Experimental: (§1) The 293a cells, described in Example 1)-6, were prepared at 5× 10⁵ cells/mL in a 10% FBS-containing DMEM medium. pFLAG V5-DEST-SIRPA_V1-V10, pFLAG V5-DEST-monkey SIRPA, pFLAG V5-DEST-mouse SIRPA, or pFLAG V5-DEST was introduced into the cells using Lipofectamine LTX (Invitrogen), and 100 μL each was aliquoted to a 96-well plate (Corning Incorporated) and cultured overnight in a 10% FBS-containing DMEM medium at 37° C. under a 5% CO₂ condition. The obtained introduced cells were used for cell-based ELISA in a state that they adhered. After the culture supernatant was removed, 50 μL per well of hD13_HIL3, hD13_HIL4h, hD13_H2L2, hD13_H2L3, or cD13 prepared in Examples 6 and 7 or a control antibody was added to each of various SIRPA genes-introduced cells at a final concentration of 0 to 10,000 ng/ml, and the mixture was allowed to stand at 4° C. for one hour. Thereafter, binding to human SIRPA was evaluated in the same manner as in Example 5-1.

human SIRPA_V9 = target: T2, human SIRPA_V9 (human, UniProt P78324 31-504); assay: cell-based ELISA on 293α cells expressing FLAG-tagged SIRPA_V9; Abs 490 normalized to FLAG tag [i]
T2 construct: FLAG-tagged (pFLAG V5-DEST), on 293α cells; also called human SIRPA Variant 9
Experimental: as §1

human SIRPA_V8 = target: T3, human SIRPA_V8 (human, UniProt P78324 31-504); assay: cell-based ELISA on 293α cells expressing FLAG-tagged SIRPA_V8; Abs 490 normalized to FLAG tag [iv]
T3 construct: FLAG-tagged (pFLAG V5-DEST), on 293α cells; also called human SIRPA Variant 8
Experimental: as §1

human SIRPA_V2 protein = target: T4, human SIRPA_V2 protein (human, UniProt P78324 31-504); assay: blocking cell-based ELISA: peroxidase-labeled CD47-Fc (1 µg/mL) on 293α cells expressing SIRPA_V2; y axis = CD47-Fc signal relative to no antibody (100)
T4 construct: Expressed on 293α cells from pcDNA3.2 V5-DEST or pFLAG V5-DEST (FLAG-tagged) vectors; also called human SIRPA Variant 2; ECD variant (full-length, amino acids 1 to 504)
Experimental: After the culture supernatant of human SIRPA or monkey SIRPA expression vector-introduced 293α cells prepared in Example 8)-1 was removed, 50 μL per well of hD13_HIL3, hD13_HIL4h, hD13_H2L2, or hD13_H2L3 diluted with 5% FBS-containing PBS to a final concentration of 0 to 10,000 ng/ml was added to each of pcDNA3.2 V5-DEST-SIRPA_V1, pcDNA3.2 V5-DEST-SIRPA_V2, pcDNA3.2 V5-DEST-monkey SIRPA, and pcDNA3.2 V5-DEST-introduced 293α cells, immediately followed by addition of peroxidase-labeled CD47-Fc prepared with 5% FBS-containing PBS at 1 μg/mL, and the mixture was allowed to stand at 4° C. for one hour. Thereafter, the SIRPA-CD47 binding inhibitory activity was evaluated in the same manner as in 1)-6-3.

cSIRPA_ECD = target: T5, cSIRPA_ECD (cynomolgus monkey); assay: SPR Biacore T200, antibody captured on anti-human IgG (Fc), monkey SIRPA_ECD as analyte, 1:1 model
T5 construct: Secreted recombinant protein
T5 chain: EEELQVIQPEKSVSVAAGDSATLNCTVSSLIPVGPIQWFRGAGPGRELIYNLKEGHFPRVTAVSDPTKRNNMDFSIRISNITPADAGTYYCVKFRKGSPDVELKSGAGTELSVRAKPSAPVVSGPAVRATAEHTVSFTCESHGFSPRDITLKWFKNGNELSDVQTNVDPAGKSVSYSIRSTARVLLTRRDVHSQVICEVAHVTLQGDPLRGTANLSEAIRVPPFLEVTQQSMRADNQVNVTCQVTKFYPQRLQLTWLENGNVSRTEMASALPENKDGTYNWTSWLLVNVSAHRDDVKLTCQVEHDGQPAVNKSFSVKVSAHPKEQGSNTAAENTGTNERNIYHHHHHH
Experimental: The dissociation constants of hD13_HIL3, hD13_HIL4, hD13_H2L2, and hD13_H2L3 prepared in Example 7 against human SIRPA_V1_IgV and monkey SIRPA_ECD prepared in Example 1 were measured by a capture method of capturing a humanized antibody as a ligand to an Anti-Human IgG (Fc) antibody immobilized using Human Antibody Capture Kit (GE Healthcare Bioscience Corp.) and measuring an antigen as an analyte, using Biacore T200 (GE Healthcare Bioscience Corp.). HBS-EP+ (GE Healthcare Bioscience Corp.) was used as a running buffer, and CM5 (GE Healthcare Bioscience Corp.) was used as a sensor chip. Onto the chip, 1 μg/mL humanized antibody was added at 10 μL/min for 60 seconds, and then a serially diluted solution (0.5 to 8 μg/mL) of human SIRPA protein or a serially diluted solution (1 to 16 μg/mL) of monkey SIRPA protein was added as an antigen at a flow rate of 30 μL/min for 120 seconds, and subsequently the dissociation phase for 600 seconds was monitored. As a regenerant, 3 M magnesium chloride (GE Healthcare Bioscience Corp.) was added at a flow rate of 20 μL/min for 30 seconds. For data analysis, a binding rate constant (ka), a dissociation rate constant (kd), and a dissociation constant (KD; KD=kd/ka) were calculated using a 1:1 binding model.

human SIRPA_V7 = target: T6, human SIRPA_V7 (human, UniProt P78324 31-504); assay: cell-based ELISA on 293α cells expressing FLAG-tagged SIRPA_V7; Abs 490 normalized to FLAG tag [iii]
T6 construct: FLAG-tagged (pFLAG V5-DEST), on 293α cells; also called human SIRPA Variant 7
Experimental: as §1

T4 sequence (P78324 other isoform, or with tags, fused parts or gaps limits assumed): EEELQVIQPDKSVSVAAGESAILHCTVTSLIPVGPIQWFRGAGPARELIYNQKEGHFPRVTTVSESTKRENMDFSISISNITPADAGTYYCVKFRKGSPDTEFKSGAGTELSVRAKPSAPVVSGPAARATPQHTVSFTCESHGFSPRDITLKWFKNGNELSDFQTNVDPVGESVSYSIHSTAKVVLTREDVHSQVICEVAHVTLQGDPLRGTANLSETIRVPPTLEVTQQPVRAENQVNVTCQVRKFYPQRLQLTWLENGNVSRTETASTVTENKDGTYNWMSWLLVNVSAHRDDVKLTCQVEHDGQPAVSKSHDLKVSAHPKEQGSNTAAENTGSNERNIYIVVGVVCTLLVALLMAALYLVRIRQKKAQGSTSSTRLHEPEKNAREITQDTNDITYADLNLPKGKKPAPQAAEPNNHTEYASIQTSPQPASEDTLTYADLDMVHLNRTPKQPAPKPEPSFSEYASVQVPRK
T6 sequence (P78324 other isoform, or with tags, fused parts or gaps limits assumed): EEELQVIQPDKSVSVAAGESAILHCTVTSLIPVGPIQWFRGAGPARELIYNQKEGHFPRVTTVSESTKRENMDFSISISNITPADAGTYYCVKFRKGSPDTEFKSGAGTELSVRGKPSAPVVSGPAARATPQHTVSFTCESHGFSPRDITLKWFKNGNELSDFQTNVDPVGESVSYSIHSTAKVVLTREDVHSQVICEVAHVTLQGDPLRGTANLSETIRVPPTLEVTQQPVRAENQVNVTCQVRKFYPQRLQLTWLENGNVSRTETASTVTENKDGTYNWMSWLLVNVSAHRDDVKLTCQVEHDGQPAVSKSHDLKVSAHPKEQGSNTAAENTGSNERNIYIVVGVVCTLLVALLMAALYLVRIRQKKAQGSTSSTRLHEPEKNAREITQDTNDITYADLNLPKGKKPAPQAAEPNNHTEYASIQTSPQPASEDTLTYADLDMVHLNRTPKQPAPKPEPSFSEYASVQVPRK
T1 sequence (P78324 other isoform, or with tags, fused parts or gaps limits assumed): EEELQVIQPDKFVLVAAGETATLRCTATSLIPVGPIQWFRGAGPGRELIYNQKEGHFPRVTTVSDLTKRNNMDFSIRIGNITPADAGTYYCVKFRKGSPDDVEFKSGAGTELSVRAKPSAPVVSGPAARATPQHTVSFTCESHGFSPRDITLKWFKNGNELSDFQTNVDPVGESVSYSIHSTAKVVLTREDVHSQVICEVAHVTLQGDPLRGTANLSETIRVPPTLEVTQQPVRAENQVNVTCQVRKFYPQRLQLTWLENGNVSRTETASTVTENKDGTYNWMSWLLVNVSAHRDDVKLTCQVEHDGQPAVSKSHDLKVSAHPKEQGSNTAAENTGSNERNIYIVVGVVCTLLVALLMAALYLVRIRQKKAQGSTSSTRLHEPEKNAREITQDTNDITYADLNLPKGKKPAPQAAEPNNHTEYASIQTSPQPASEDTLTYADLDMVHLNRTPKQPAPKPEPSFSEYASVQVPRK

Row | Binder | EC50 (read off the curve) (human SIRPA_V5) [µg/mL] | EC50 (read off the curve) (human SIRPA_V9) [µg/mL] | EC50 (read off the curve) (human SIRPA_V8) [µg/mL] | IC50 (read off the curve) (human SIRPA_V2 protein) [µg/mL] | Kd (cSIRPA_ECD) [nM] | EC50 (read off the curve) (human SIRPA_V7) [µg/mL]
1 | humanized anti-SIRPA antibody hD13_H1L3 (antibody, human IgG4 S228P, kappa, F234A L235A, V domains shown, hH1 heavy chain (IgG4proFALA) and hL3 kappa light chain; also called hD13_HIL3; HIL3 antibody) VH: QVQLVESGGGVVQPGRSLRLSCAASGFTFSDYGMIWVRQAPGKGLEWVASISSSSSYIYYADSVKGRFTISRDNSKNRLYLQMNSLRAEDTAVYYCARRYYGFNYPFDYWGQGTMVTVSS VL: DTQLTQSPSSLSASVGQRVTITCGASKSVRTYMHWYQQKPGKQPKLLIYSASNLEAGVPSRFSGSGSGTDFTLTISSLQPEDFATYYCQQSNEPPYTFGQGTKLEIKR | ~0.04 | ~0.04 | ~0.04 | ~0.6 | 38.6 | ~0.04
2 | humanized anti-SIRPA antibody hD13_H1L4 (antibody, human IgG4 S228P, kappa, F234A L235A, V domains shown, hH1 heavy chain (IgG4proFALA) and hL4 kappa light chain; also called hD13_HIL4; hD13_HIL4h) VH: QVQLVESGGGVVQPGRSLRLSCAASGFTFSDYGMIWVRQAPGKGLEWVASISSSSSYIYYADSVKGRFTISRDNSKNRLYLQMNSLRAEDTAVYYCARRYYGFNYPFDYWGQGTMVTVSS VL: DTVLTQSPDSLAVSLGQRATINCGASKSVRTYMHWYQQKPGQQPKLLIYSASNLEAGVPSRFSGSGSGTDFTLTISSLQAEDVAVYYCQQSNEPPYTFGQGTKVEIKR | ~0.04 | ~0.04 | ~0.04 | ~0.7 | 83.9 | ~0.04
3 | humanized anti-SIRPA antibody hD13_H2L3 (antibody, human IgG4 S228P, kappa, F234A L235A, V domains shown, hH2 heavy chain (IgG4proFALA) and hL3 kappa light chain; also called H2L3 antibody) VH: EVQLVESGGGVVQPGRSLRLSCAASGFTFSDYGMIWVRQAPGKGLEWVASISSSSSYIYYADSVKGRFTISRDNSKNTLYLQMNSLRAEDTAVYYCARRYYGFNYPFDYWGQGTMVTVSS VL: DTQLTQSPSSLSASVGQRVTITCGASKSVRTYMHWYQQKPGKQPKLLIYSASNLEAGVPSRFSGSGSGTDFTLTISSLQPEDFATYYCQQSNEPPYTFGQGTKLEIKR | ~0.04 | ~0.04 | ~0.04 | ~0.7 | 54.2 | ~0.04
4 | humanized anti-SIRPA antibody hD13_H2L2 (antibody, human IgG4 S228P, kappa, F234A L235A, V domains shown, hH2 heavy chain (IgG4proFALA) and hL2 kappa light chain; also called H2L2 antibody) VH: EVQLVESGGGVVQPGRSLRLSCAASGFTFSDYGMIWVRQAPGKGLEWVASISSSSSYIYYADSVKGRFTISRDNSKNTLYLQMNSLRAEDTAVYYCARRYYGFNYPFDYWGQGTMVTVSS VL: AIQLTQSPSSLSASVGQRVTITCGASKSVRTYMHWYQQKPGKAPKLLIYSASNLEAGVPSRFSGSGSGTDFTLTISSLQPEDFATYYCQQSNEPPYTFGQGTKLEIKR | ~0.04 | ~0.04 | ~0.04 | ~0.8 | 162 | ~0.04
5 | human chimeric anti-SIRPA antibody cD13 (antibody, human IgG4 S228P, kappa, F234A L235A, V domains shown, Human IgG4proFALA heavy chain, human kappa light chain; also called cD13 (IgG4pf); human chimeric antibody D13) VH: EVQLVESGGGLVQPGRSLKLSCLASGFTFSDYGMIWVRQAPGKGLEWVASISSSSSYIYYADTVKGRFTISRENAKNTLFLHMTSLRSEDTALYYCARRYYGFNYPFDYWGQGVMVTVSS VL: DTVLTQSPALAVSLGQRVTISCGASKSVRTYMHWYQQKSGQQPKLLIYSASNLEAGVPSRFSGSGSGTDFTLTIDPVEADDIANYYCQQSNEPPYTFGAGTKLELKR | ~0.04 | ~0.04 | ~0.04 | ~0.8 | – | ~0.04
